Measured values reported in PMC8458290 (Nature Communications, 2021).

B1: nanobody C1 (monovalent VHH, pOPINO construct) (VHH)
VHH: QVQLVESGGGLVQPGGSLRLSCAASGFTNDFYSIAWFRQAPGKEREGVSWLSVSDNTPTYVDSVKDRFTISRHNANNTVYLQMNMLKPEDTAIYYCAAGRFAGRDTWPSSYDYWGQGTQVTVSS
B2: nanobody F2 (monovalent VHH, pOPINO construct) (VHH)
VHH: QVQLVESGGGLVQAGGSLRLACIASGRTFHSYVMAWFRQAPGKEREFVAAISWSSTPTYYGESVKGRFTISRDNAKNTVYLQMNRLKPEDTAVYFCAADRGESYYYTRPTEYEFWGQGTQVTVSS

Columns and labels:
[1] = target: T1, Beta (B.1.351) RBD, biotinylated (SARS-CoV-2, Beta (B.1.351), N501Y | E484K | K417N, biotinylated (site not stated)); test: SPR; details: both partners purified
T1 construct: also called Beta RBD; Beta-RBD

[2] = target: T2, Alpha (B.1.1.7) RBD, biotinylated (SARS-CoV-2, Alpha (B.1.1.7), N501Y, biotinylated (site not stated)); test: SPR; details: both partners purified
T2 construct: also called Alpha RBD; RBD-Kent

Binder	Kd [1] [nM]	Kd [2] [nM]	T1/2 [2] [min]	T1/2 [1] [min]
B1	0.648	0.725	21	–
B2	0.038	0.047	51	52
